What was measured:
[1] = molecular target: T1, A15.5R82_Axle (C3-C3); assay: single particle cryoEM of the assembled rotor (6.5 Å)
T1 construct: C3 homotrimeric axle with DHR arms; also called C3 axle
T1 chain: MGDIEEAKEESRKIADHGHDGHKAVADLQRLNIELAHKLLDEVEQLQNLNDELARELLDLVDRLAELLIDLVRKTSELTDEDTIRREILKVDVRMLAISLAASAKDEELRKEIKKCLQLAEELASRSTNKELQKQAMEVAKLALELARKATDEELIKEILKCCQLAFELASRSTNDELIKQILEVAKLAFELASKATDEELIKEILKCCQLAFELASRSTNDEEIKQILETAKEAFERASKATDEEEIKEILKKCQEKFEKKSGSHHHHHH
Procedure: Multiple datasets were collected for each design and combined early on during processing. See table 1 and processing flowcharts for details. Briefly, images were manually curated to remove poor quality acquisitions such as bad ice or large regions of carbon. Dose-weighting and image alignment of all 50 frames was carried out using MotionCor2 (56) with 5×5 patch or with cryosparc v2 patch alignment tool with default parameters. Super-resolution krios data was binned 2X during alignment. Initial CTF parameters were estimated using CTFfind4 (57). Particle picking was done with a gaussian blob picker and in some cases followed by a template picker. Particles were extensively classified in 2D to remove junk particles and designs which may not have been intact or were damaged, yielding in some cases relatively few particles. […] In addition, the expected motion of the rotors may have introduced further heterogeneity, limiting classification efforts. Starting models for all designs were always obtained ab initio, despite clear evidence of the expected design in 2D. […] FSC 0.143 curves were generated by exporting half maps to relion for post-process. […] For density modification in Phenix (59), we used as input the exported half maps from cryosparc with default params at 100 bins and local filtering with a factor of 5. […] Directional FSC calculated using remote 3DF SC processing tool. […]

[2] = molecular target: T2, A113_c2arms9_Axle (D3-C5); assay: EM, biolayer interferometry, SEC and SAXS of the assembled rotor
T2 construct: De novo designed D3 homohexameric axle; For biolayer interferometry it was Avi-tagged and biotinylated; also called D3 axle; axle of the D3-C5 rotor
T2 chain: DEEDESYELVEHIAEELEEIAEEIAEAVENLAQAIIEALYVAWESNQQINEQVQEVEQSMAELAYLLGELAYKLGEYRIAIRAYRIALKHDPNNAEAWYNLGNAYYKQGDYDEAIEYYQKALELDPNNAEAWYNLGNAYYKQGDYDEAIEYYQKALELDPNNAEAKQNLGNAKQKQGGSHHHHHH
Procedure: FIG. 13. Biolayer interferometry assays measuring in vitro assembly of ring and axle parts into a full rotary system. For each 6 designs, the equilibrium binding curves from biolayer interferometry binding assays is shown on the left and the corresponding Biolayer interferometry kinetic binding traces shown on the right. Biotinylated axles were immobilized on the tip and the binding in a solution of fre rings was measured. For both D3-C5 and D3-C3, a fresh ring solution was prepared by buffer exchange from citrate buffer to TBS with reducing agent, and immediately used for binding assays.
Protein samples were purified by SEC in 25 mM Tris pH 8.0, 25 mM NaCl and 1% glycerol; elution fractions corresponding to the protein were further concentrated using 3K protein concentrators (Millipore Sigma) and the flow-through was used as blank for buffer subtraction. SAXS Scattering measurements were performed at the SIBYLS 12.3.1 beamline at the Advanced Light Source. […] Collected data were processed using the SAXS FrameSlice™ online server and analysed using the ScÅtter software package(23). […]

B1: A15.5R82_Ring (C3-C3) (designed binder)
chain: MGVEELLLLARAAHHSGTTVEEAYKLAKKLGISVKELLLLARAAHNSGTTVEEAYKLALKLGISVEELLLLAKAAHYSGTTVEEAYKLALELGISVRELLLLAKAAHFAGRTVREAYALELALGALRLEDRARELIKEAEKKGDPEKLREALEALEEAVRLVEEAIKLRPDMDLAVEIAVRLARMLKRVAELLQELAKKTGDPELLKLALRALEVAVRAVELAIKSNPDNDEAVETAVRLARELKKVAEELQERAKKTGDPELLKLALRALEVAVRAVELAIKSNPDNEEAVETAKRLAEELRKVAELLEERAKETGDPELQELAKRAKEVADRARELAKKSGSHHHHHH
notes: C3 ring of three subunits, each fused to DHR82; also called C3 ring
[1]
  binding result: binds

B2: A113_c2arms9_Ring (D3-C5) (designed binder)
chain: MGDRSEHAKKLKTFLENLRRHLDRLDKHIKQLRDILSENPEDERVKDVIDLSERSVRIVKTVIKIFEDSVRELEKAILWLAEELAKSPDPEDLKRAVELARAVIEANPGSNLSRKAMEIIERAARELSKLPDPEAQRTAIEAASQLATMAAATGNTDQVRRAAELMVEIARLAGTEEAQDLALDALLDVLETALQIATKIIDDANKLLEKLRRSERKDPKVVETYVELLKRHEEAVRLLLEVARVHEELVRFTIIEEKVRSPDCEDIRDAVREAEELLRENPSEMAEELLRRAIEAAVRCPDCEAIREAVRAAEELLRENPSTEAEELLRRAIEAAVRCPDCEAIREAVRAAEELLRENPSEEAKELLRRAIESAKKCPDPEAQREAKRAEEELRKEGSHHHHHH
notes: De novo designed C5 homopentameric ring; also called C5 ring; ring of the D3-C5 rotor
[2]
  binding result: binds
